From patent EP1063290A1, “NOVEL DICARBONYLREDUCTASE AND GENE ENCODING THE SAME” (TAISHO PHARMACEUTICAL CO., LTD, priority 1998, dated 1999)

Legend:
Assay in all cases: purified protein, by the assay type
[1] = substrate: O=Cc1cccnc1; conditions: other: rate constants for the major substrates, mouse enzyme; pH 7.0; 25.0 °C
Description: (§1) The enzyme activity assay method is not particularly restricted, and it may be based on the activity assay method for mouse carbonyl reductase (CR) (Eur. J. Biochem. 22, 381-387(1995)).
(§2) • (1) This was assayed under the following conditions. The reaction mixture (total: 2.0 ml) comprised an 80 mM potassium phosphate solution (pH 7.0 or 6.0), 0.1 mM NADPH or NADH and a carbonyl substrate or enzyme (50 µl) (10.1 µg or 3.7 µg of glomerin B). The oxidation rate for NAD(P)H was measured at 340 nm. One unit of enzyme activity was defined as that which catalyzed oxidation of 1 µmol of NAD(P)H in one minute at 25°C. • (2) The substrate specificity of protein DCR1 for carbonyl compounds is summarized in Table 1. • (3) pH dependency of diacetyl reductase activity due to protein DCR1 The activity was measured using 10 mM diacetyl, and the specific activity was calculated based on the protein concentration in the protein DCR1 sample (Fig. 7).

[2] = substrate: CC(=O)C(=O)c1ccccc1; conditions: pH 7.0; 25.0 °C
Description: as §1, §2

[3] = substrate: O=Cc1ccncc1; conditions: other: rate constants for the major substrates, mouse enzyme; pH 7.0; 25.0 °C
Description: as §1, §2

[4] = substrate: CC(=O)C(C)=O
[5] = substrate: COC(=O)C(C)=O; conditions: other: rate constants for the major substrates, mouse enzyme; pH 7.0; 25.0 °C
Description: as §1, §2

[6] = substrate: CCCCC(=O)C(C)=O; conditions: other: rate constants for the major substrates, mouse enzyme; pH 7.0; 25.0 °C
Description: as §1, §2

[7] = substrate: CC(=O)C(C)O; conditions: other: rate constants for the major substrates, mouse enzyme; pH 7.0; 25.0 °C
Description: as §1, §2

[8] = substrate: CCC(=O)C(=O)CC
[9] = substrate: CCC(=O)C(C)=O
[10] = substrate: COC(=O)C(=O)c1ccccc1; conditions: other: rate constants for the major substrates, mouse enzyme; pH 7.0; 25.0 °C
Description: as §1, §2

[11] = substrate: CCCC(=O)C(C)=O
[12] = substrate: O=C(CBr)C(=O)CBr; conditions: other: assay at pH 7.0, 25.0 °C
Description: The enzyme used here was an expressed recombinant enzyme. • (a) Substrate specificity: In order to determine the substrate specificity, there may be used a hydrocarbon system including various ketone, aldehyde and ester groups, or an aromatic compound.
The reaction mixture (total: 2.0 ml) comprised an 80 mM potassium phosphate solution (pH 7.0 or 6.0), 0.1 mM NADPH or NADH and a carbonyl substrate or enzyme (50 µl) (10.1 µg or 3.7 µg of hDCR1).
The oxidation rate for NAD(P)H was measured at 340 nm.
One unit of enzyme activity was defined as that which catalyzed oxidation of 1 µmol of NAD(P)H in one minute at 25°C.

[13] = other: rate constants for the major substrates, mouse enzyme, pH 7.0, 25.0 °C
[14] = other: assay at pH 7.0, 25.0 °C

B1: protein DCR1 (Mus musculus) (protein)
chain: MDLGLAGRRALVTGAGKGIGRSTVLALKAAGAQVVAVSRTREDLDDLVRECPGVEPVCVDLADWEATEQALSNVGPVDLLVNNAAVALLQPFLEVTKEACDTSFNVNLRAVIQVSQIVAKGMIARGVPGAIVNVSSQASQRALTNHTVYCSTKGALDMLTKMMALELGPHKIRVNAVNPTVVMTPMGRTNWSDPHKAKAMLDRIPLGKFAEVENVVDTILFLLSNRSGMTTGSTLPVDGGFLAT
For B1, the Km [1] was 7,900 µM, the Vmax [1] was 0.62 unit/mg and the Vmax/Km [1] was 0.08 unit/mg/mM. It also gave a Km [2] of 140 µM, a Vmax [2] of 6.7 unit/mg and a Vmax/Km [2] of 48 unit/mg/mM. For the same protein, the Km [3] was 4,400 µM, the Vmax [3] was 0.78 unit/mg and the Vmax/Km [3] was 0.18 unit/mg/mM. The Km [4, 13] was 900 µM, the Km [5] was 1,700 µM and the Vmax [5] was 2.7 unit/mg. It also gave a Vmax/Km [5] of 1.6 unit/mg/mM, a Km [6] of 200 µM and a Vmax [6] of 4.4 unit/mg. For the same protein, the Vmax/Km [6] was 22 unit/mg/mM, the Km [7] was 6,500 µM and the Vmax [7] was 0.51 unit/mg. The Vmax/Km [7] was 0.08 unit/mg/mM, the Km [8, 13] was 130 µM and the Vmax [8, 13] was 6.6 unit/mg. For the same protein, the Vmax/Km [8, 13] was 51 unit/mg/mM, the Km [9, 13] was 280 µM and the Vmax [9, 13] was 5.7 unit/mg. The Vmax/Km [9, 13] was 20 unit/mg/mM, the Km [10] was 690 µM and the Vmax [10] was 8.7 unit/mg. It also gave a Vmax/Km [10] of 13 unit/mg/mM, a Km [11, 13] of 230 µM and a Vmax [11, 13] of 4.1 unit/mg. For the same protein, the Vmax/Km [11, 13] was 18 unit/mg/mM.

B2: protein hDCR1 (Homo sapiens) (protein)
chain: MELFLAGRRVLVTGAGKGIGRGTVQALHATGARVVAVSRTQADLDSLVRECPGIEPVCVDLGDWEATERALGSVGPVDLLVNNAAVALLQPFLEVTKEAFDRSFEVNLRAVIQVSQIVARGLIARGVPGAIVNVSSQCSQRAVTNHSVYCSTKGALDMLTKVMALELGPHKIRVNAVNPTVVMTSMGQATWSDPHKAKTMLNRIPLGKFAEVEHVVNAILFLLSDRSGMTTGSTLPVEGGFWAC
For B2, the Km [12] was “(0.016) mM”, the Km [4, 14] was “(0.25) mM” and the Km [8, 14] was “(0.12) mM”. The Km [9, 14] was “(0.26) mM” and the Km [11, 14] was “(0.24) mM”.
